{"source": "patent WO2021228904A1", "about": "(dated 2021)", "binders": {"B1": {"name": "SEQ ID NOs: 461/465 (HCVR/LCVR) (antibody, V domains shown)", "VH": "EVQLVESGAEVKKPGSSVKVSCKASGGTFSSYAISWVRQAPGQGLEWMGGIIPIFGTANYAQKFQGRATITTDESTSTAYMELSSLGSEDTAVYYCARTHSYDNSGQYFDYWGQGTMVTVSS", "VL": "DIVMTQSPATLSLSPGERATLSCRASQSVSSFLAWYQQKPGQAPRLLIYDASNRATGIPARFSGSGSGTDFTLTISSLEPEDFAVYYCQQRSNWPPRLTFGGGTKVDIK"}, "B2": {"name": "SEQ ID NOs: 217/221 (HCVR/LCVR) (antibody, V domains shown)", "VH": "EVQLVESGGGLVQPGGSLRLSCAASGFTFSSYDMHWVRQTTGKGLQWVSAIGTAGDTYYPGSVKGRFTISRENAKNSLYLQMNSLRAGDTAVYYCARGGDRYPVGYFDLWGRGTLVTVSS", "VL": "not shown"}, "B3": {"name": "SEQ ID NOs: 621/625 (HCVR/LCVR) (antibody, V domains shown)", "VH": "QVQLVQSGAEVKKPGASVKVSCKVSGYTLTELSMHWVRQAPGKGLEWMGGFDPEDGETIYAQKFQGRVTMTEDTSTDTAYMELSSLRSEDTAVYYCATAYSVDTAMVRGVGYWGQGTLVTVSS", "VL": "not shown"}, "B4": {"name": "SEQ ID NOs: 57/61 (HCVR/LCVR) (antibody, V domains shown)", "VH": "not shown", "VL": "QSVLTQPASVSGSPGQSITISCTGTSSDVGGYNYVSWYQQHPGKAPKLMIYDVSNRPSGVSNRFSGSKSGNTASLTISGLQAEDEADYYCSSYTSSSTRHWVFGGGTKLTVL"}, "B5": {"name": "002_P2C4 (antibody, V domains shown)", "VH": "QVQLVESGAEVKKPGSSVKVSCKASGGTFSSYGINWVRQAPGQGLEWMGGIIPIFGTANYAQKFQGRVTITTDESTSTAYMELSSLRSEDTAVYYCASFGDDSGDEGVRWGQGTLVTVSS", "VL": "EIVMTQSPATLSLSPGERATLSCRASQSVSSYLAWYQQKPGQAPRLLIYDASNRATGIPARFSGSGSGTDFTLTISSLEPEDFAVYYCQQRSNWPPYTFGQGTKVEIK"}, "B6": {"name": "SEQ ID NOs: 493/497 (HCVR/LCVR) (antibody, V domains shown)", "VH": "EVQLVQSGAEVKKPGESLKISCKGSGYSFTSYWIDWVRQMPGKGLEWMGIFYPGDSDTRYSPSFQGQVTISADKSISTAYLQWSSLKASDTAMYYCARHNPDYYDSSGPLDYWGQGTLVTVSS", "VL": "not shown"}, "B7": {"name": "SEQ ID NOs: 421/425 (HCVR/LCVR) (antibody, V domains shown)", "VH": "EVQLVQSGAEVKKPGASVKVSCKASGYTFTSYDINWVRQATGQGLEWMGWMNPNSGNTGYAQKFQGRVTMTRNTSISTAYMELSSLRSEDTAVYYCARVVGSSWYPVDAFDIWGQGTRVTVSS", "VL": "QSVLTQPASVSGSPGQSITISCTGTSSDVGGYNYVSWYQQHPGKAPKLMIYDVSNRPSGVSNRFSGSKSGNTASLTISGLQAEDEADYYCSSYTSSSTLVVFGGGTKLTVL"}, "B8": {"name": "SEQ ID NOs: 653/657 (HCVR/LCVR) (antibody, V domains shown)", "VH": "EVQLVESGGGLVQPGRSLRLSCAASGFTFDDYAMHWVRQAPGKGLEWVSGISWNSGSIGYADSVKGRFTISRDNAKNSLYLQMNSLRAEDTALYYCAKMGPDPAHDYGRKNDAFDIWGQGTMVTVSS", "VL": "DIVMTQSPSSLSASVGDRVTITCRASQSMSSYLNWYQQKPGKAPKLLIYAASSLQSGVPSRFSGSGSGTDFTLTISSLQPEDFATYYCQQSYSTLTFGGGTKLEIK"}, "B9": {"name": "SEQ ID NOs: 557/561 (HCVR/LCVR) (antibody, V domains shown)", "VH": "EVQLVESGGGVVQPGRSLRLSCAASGFTFSSYAMHWVRQAPGKGLEWVAVISYDGSYKYYADSVKGRFTISRDNSKNTLYLQMNSLTAEDTAVYYCAREGSRQWLVIYFDYWGQGTLVTVSS", "VL": "AIRMTQSPSSLSASVGDRVTITCRASQSISSYLNWYQQKPGKAPKLLIYAASSLQSGVPSRFSGSGSGTDFTLTISSLQPEDFATYYCQQSYTTFIYTFGQGTKLEIK"}, "B10": {"name": "001_P1G11 (antibody, V domains shown)", "VH": "EVQLVQSGTEVKKPGASVKVSCKASGYTFPGYYIHWVRQAPGQGLEWMGWINPNSGVAKSAQKFQGRVTMTRDSSISTVYLDVTSDDTAVYYCARDLVWATVSGTMDVWGQGTTVTVSS", "VL": "QSALTQPPSASGSPGQSVTISCTGTSSDIGTYNYVSWYQQHPGKAPKLMIYEVTKRPSGVPDRFSGSKSGNTASLTVSGLQADDEGDYYCSSYVGNNNWVFGGGTKLTVL"}, "B11": {"name": "SEQ ID NOs: 73/77 (HCVR/LCVR) (antibody, V domains shown)", "VH": "EVQLVESGGGLVQPGGSLRLSCAASGFTVTSTYMTWVRRAPGKGLEWVSIIYNDDTTYYADSVKDRVTVSRDDSKNTLYLQMNSLRAEDTAIYYCARGGYYYDPSGYYSRSFSFDYWGQGTLVTVSS", "VL": "NFMLTQPASVSGSPGQSITISCTGSSSDIAPYTFVSWYQQHSGTAPKLIIYDVRNRPSGISDRFSGSRSGNTASLSISGLQAEDEADYYCSAYTTTSTSWVFGGGTKLTVL"}, "B12": {"name": "SEQ ID NOs: 661/665 (HCVR/LCVR) (antibody, V domains shown)", "VH": "EVQLVESRAEMKKPGESLKISCKGSGYTFTNHWIAWVRQMPGKGLEWMGIIYPGDSDTRYSPSFEGQVTISADKSISTAYLQWSSLKASDTAMYYCARRGYTYGADFYGLDVWGQGTRVTVSS", "VL": "not shown"}}}
{"molecular_target": "SARS-CoV-2 receptor binding domain (RBD), amino acids 319-541, octahistidine tag (SARS-CoV-2, UniProt P0DTC2 319-541)", "experiment": "not named there; ELISA in Example 4"}
{"binder": "B1", "binding result": "binds"}
{"binder": "B2", "binding result": "binds"}
{"binder": "B3", "binding result": "binds"}
{"binder": "B4", "binding result": "binds"}
{"binder": "B5", "binding result": "binds"}
{"binder": "B6", "binding result": "binds"}
{"binder": "B7", "binding result": "binds"}
{"binder": "B8", "binding result": "binds"}
{"binder": "B9", "binding result": "binds"}
{"binder": "B10", "binding result": "binds"}
{"binder": "B11", "binding result": "binds"}
{"binder": "B12", "binding result": "binds"}
